This is an account of results in US20240218057A1 (ROCKEFELLER UNIVERSITY, published 2024).

This assay deals with T1, SARS-COV-2 RBD (SARS-COV-2, UniProt P0DTC2 319-539).
T1 construct: also called WT RBD
As to the kind of experiment: ELISA, RBD coated on plate. On the technique in general: ELISA stands for enzyme-linked immunosorbent assay.

B1: C1018 (antibody, V domains shown)
VH: QVQLVESGGGVVQPGRSLRLLCAASGFTFNTHGMHWVRQAPGKGLEWVAVIWFDGSNKYYADSVKGRFTISRDNSTNTLYLQMNSLRAEDTAVYYCARVYGGLPYYYAIDVWGQGTTVTVSS
VL: QSVLTQPPSVSGAPGQRVTISCAGSSSNIGAGYGVHWSQQLPGRPPKLLIYGDSNRPSGVPDRFSGSNSGTSASLAITGLQAEDEAVYYCQSYDRSLRAWVFGGGTKLSVL
The term EC50 denotes the concentration at which the effect is half-maximal. In the case of B1, the EC50 was 3.09 ng/mL.

B2: C1008 (antibody, V domains shown)
VH: EVQLVESGGGLIQPGGSLRLSCAASGFTVSSNYMSWVRQAPGKGLEWVSVIYSGGSTYYADSVKGRFTISRDNSKNTLYLQMNSLRAEDTAVYYCARVVGYDFWSGYDGGYFDYWGQGTLVTVSS
VL: QSALTQPASVSGSPGQSITISCTGTSSDVGSYNLVSWYQQHPGKAPKLMIYEVSKRPSGVSNRFSGSKSGNTASLTISGLQAEDEADYYCCSYAGSSTWVFGGGTKLTVL
The molecule B2 returned an EC50 of 17.2 ng/mL.

B3: C1009 (antibody, V domains shown)
VH: EVQLVESGGGLLQPGGSLRLSCAASGFSVSSNYMTWVRQAPGKGLEWVAAIYSGDSTYYVDSVKGRFIISRDNSKNTVYLHLSSLRAEDTAVYYCARLVGYDFRSGSDGGYFDYWGHGTLVTVSS
VL: QSALTQPASVSGSPGQSITISCTGTSSDIGNYNLVSWYQQHPGKAPKLMIYDVSKRPSGVSNRFSGSKSGNTASLTISGLQAEDETDYYCCSYAGSSTWVFGGGTKLTVL
As for B3, a half-maximal response (EC50) required 1.34 ng/mL.

B4: C1003 (antibody, V domains shown)
VH: QVQLVESGGGVVQPGRSLRLSCAASGFAFSSYGMNWVRQAPGKGLEWVTTVSSDGNVNYYIDSVKGRFTISRDNSKNTLYLQMNSLRGDDTAVYYCAKGPRFGWSYRGGSGFDIWGQGTMVTVSS
VL: DIQMTQSPSSLSASVGDRVTITCQASQDISNYLNWYQQKPGKAPKLLIYDASNLETGVPSRFSGSGSGTDFTFTITSLQPEDIATYYCQQYDNLPITFGQGTRLEIK
In the case of B4, the EC50 was 1.82 ng/mL.

B5: C1006 (antibody, V domains shown)
VH: QVQLVQSGAEVRKPGSSVKVSCKASGGPFDQYTFSWVRQAPGQGLEWMARITPVVDLTNYAQKFQGRITIITDKSTSTAYMELSSLRSEDTAIYYCATPLNDYYASGNLGLWGQGTLVTVSS
VL: DIQMTQSPSSLSASIGDRVTITCRASQGISYYLAWFQQKPGEAPRSLIYDASSLQSGVPSKFSGSGSGTDFTLTISSLQPEDSATYYCQQYNSYPLTFGGGTKVEIK
On to B5, for which it took 2.04 ng/mL to reach a half-maximal effect (EC50).

B6: C1007 (antibody, V domains shown)
VH: QVQLVQSGSEMKKPGSSVKVSCKAAGGTLNTHTFSWVRQAPGQGLEWMGRITPTVDLTNYAQKFQGRITITADTSTNTAYLELRRLRSEDTAIYYCATPLNDYYASGNLGLWGQGTLVTVSS
VL: DIQMTQSPSSLSASIGDTVTITCRASQGISYYLAWFQRKPGKAPKSLIYDASSLQSGVPSKFSGSGSGTDFTLTISSLQPEDSATYYCQQYSTYPLTFGGGTKVEIK
With B6, the EC50 was found to be 3.22 ng/mL. This EC50 lies about 1.6-fold higher than the previous one.

B7: C996 (antibody, V domains shown)
VH: EVQLVESGGGLVQPGGSLRLSCVASGFTSTNYDMHWVRQAPGRGLQWVSSIGTAGDTYYPGSVRGRFTISRENAKNSLDLQMNSLRVGDTAVYYCARGQRGYYDRSGYYWGWRAFDIWGQGTMVTVSS
VL: SYELTQPPSVSVAPGQTARITCGGNNIGNKSVYWYQQKPGQAPVLVVYDDSGRPSGIPERFSGSNSANTATLTISRVEAGDEADYYCQVWDNNSDQFGGGTKLTVL
In turn, B7 yielded an EC50 of 3.07 ng/mL.

B8: C1012 (antibody, V domains shown)
VH: QVQLVQSGAEVKKPGSSVKVSCKASGGTVNNYAINWVRQAPGQGLEWMGGIVPIFGTPNYAQKFQGRVTITADESTSTAYMELSSLRSEDTAVYYCAKVSLTLPIAAAPRFWFDSWGQGTLVTVSS
VL: EIVMTQSPATLSVSPGERATLSCRASQSVSSHLAWYQQKPGQAPRLLIYGASTRATGIPARFSGSGSGTEFTLTISSLQSEDFAVYYCQQYHNWPPALTFGGGTKVEIK
For B8, the concentration for a half-maximal effect (EC50) is 3.29 ng/mL.

B9: C1013 (antibody, V domains shown)
VH: QVQLVQSGVEVKKPGSSVKVSCKASGGTFTDYAFSWVRQAPGQGLEWMGGIVPIFATPDYAEKFRGRVTITADESTSTAYMELSTLKSEDTAVYYCARASLTLPIRAAPRFWFDAWGQGTLVTVSS
VL: EIVMTQSPATLSVSPGERATLSCRASQGVSTHLAWYQQKPGQAPRLLIYGASTRATGIPARFSGSGSGTEFTLTISSLQSEDFAVYYCQQYHKWPPALTFGGGTKVEIK
As to B9, it took 8.92 ng/mL to reach a half-maximal effect (EC50).

B10: C1020 (antibody, V domains shown)
VH: QVQLVQSGAEVKKPGASVKISCKASGYSFSNYYIHWVRQAPGQGLEWMGIINPSGNSISYAQKFQGRVTMTGDTSTSTVYMELSSLRSEDTAVYYCARSVFPVPAAGGCDYWGQGTLVTVSS
VL: DIQMTQSPSSLSASVGDRVTITCRASQSITTSLNWYQQKPGKAPKLLIYSASTLESGVPSRFSGSGSGTDFTLTISSLQPEDFATYYCQQTYRAPPYTFGQGTKLEIK
For B10, the response was half-maximal at 2.06 ng/mL (EC50).

B11: C1016 (antibody, V domains shown)
VH: QVQLQESGPGLVKPSGTLSLTCAVSGGPISSNHWWSWVRQPPGKGLEWIGEVYRNGNTNYHPSLKSRVTMSIDNSKNQFSLSLTSVTAADTAVYYCARGGDLAMGPEYLDFWGQGTLVTVSS
VL: QSALTQPASVSGSPGQSITISCTGTSSDVGANNYVSWYQQHPGKAPKLMIYDVINRPSGVSDRFSGSKSGNTASLTISGLQAEDEADYYCSSFSTSSTLLFGGGTKLTVL
B11 showed an EC50 of 2.16 ng/mL. The EC50 values of the last two molecules are within 1.5-fold of each other.

B12: C1019 (antibody, V domains shown)
VH: QVQLVESGGGVVQPGTPLRLSCAASGFTFSSYAMHWVRQAPGKGLEWVAMISYDGGNKYYADSVKGRFTISRDNSKNTLFLQMNSLRGEDTAVYYCARSFSIRIGHKDNWGQGTLVTVSS
VL: NFMLTQPHSVSESPGKTVTISCTGSSGSIANNYVQWYQQRPGSAPTPVIYEDDQRPSGVPDRFSGSIDSSSNSASLSISGLKTEDEADYYCQSYDSTNFWVFGGGTKLTVL
B12: the midpoint of the response, the EC50, lay at 2.8 ng/mL.

B13: C997 (antibody, V domains shown)
VH: EVQLLESGGGLVQPGGSLRLSCAASGFTFSKDAMSWVRQAPGKGLEWVSTVTGSGTNTYYADSVKGRFTISRDNSNNTLYLQMNSLRAEDTAVYYCANHPLGAAEGYYYYYMDVWGKGTTVTVSS
VL: EIVLTQSPGTLSLSPGERGTLSCRASQRVPSSQLAWYQQKSGQAPRLLIYGASSRASGIPDRFSGSGSGTDFTLNISRLEPEDFAVYYCQQYGSLRALTFGGGTKVEIK
Regarding B13, the 50% effective concentration (EC50) amounted to 3.49 ng/mL.

B14: C1000 (antibody, V domains shown)
VH: QVQLQESGPGLVKPSQTLSLSCTVSGGSISSDDYYWSWIRQPPGKGLEWIGYIYYSGSTYYNSSLKSRVSISVDTSKNQFSLKLSSVTAADTAVYYCARWKRWLQFLYFDYWGQGTLVTVSS
VL: QSALTQPRSVSGSPGQSVTISCTGTSSDVGGYSFVSWYQQHPGKAPKVLIYDVDKRPSGVPDRLSGSKSGNTASLTISGLQAEDEADYYCCSYAGSYTLIFGGGTKLTVL
The molecule B14 came in with an EC50 of 3.2 ng/mL.

B15: C998 (antibody, V domains shown)
VH: QVQLVQSGAEVKKPGASVKVSCKTSGYTFISYYIHWVRQAPGQGLEWMGIINPDGDNTNYAQKFQGRVTMTRDTSTSTVYMELSSLRFEDTAVYYCARGGAIPALRTAFDIWGQGTMVTVSS
VL: DIQMTQSPSTLSASVGDRVTITCRASQSISNWLAWYQQKPGKAPKLLIYKASSLESGVPSRFSGSGSGTEFTLTISSLQPDDFATYYCQEYNSYYFGQGTKLEIK
As to B15, it took 2.51 ng/mL to reach a half-maximal effect (EC50).

B16: C999 (antibody, V domains shown)
VH: QVQLVQSGAEVRRPGASVKVSCKASGYTLTHYYIHWVRQAPGQGLEWVGIINPDGDNTNYAQKFQGRVTMTRDTSTSTVYMELSSLRSEDTAIFYCARGGAIPALRSAFDIWGQGTMVTVSS
VL: DIQMTQSPSTLSASVGDRVTITCRASQSINNWLAWYQQKPGKAPKLLIYKASTLESGVPSRFSGSGSGTEFTLTISSLQPDDFATYYCQQYNSYFFGQGTKLEIK
Take B16: the EC50 turned out to be 2.68 ng/mL.

B17: C1002 (antibody, V domains shown)
VH: EVQLVESGGGLVQPGGSLRLSCAASEFIVSSNYMTWVRQAPGKGLEWVSIMYPGGSTFYADSVKGRFTISRDNSKNTLYLQINRLRAEDTAVYYCARDIAGRLDYWGQGTLVTVSS
VL: DIQMTQSPSSLSASVGDRVTITCQASQDINNYLNWYQQKPGKAPKLLIYDASNLETGVPSRFSGSGSGTDFSFTISSLQPEDIATYYCQQYDNLSRLTFGGGTKVEIK
The molecule B17 displayed an EC50 of 0.83 ng/mL.

B18: C1011 (antibody, V domains shown)
VH: QVQLVESGGGVVQPGRSLRLSCAVSGFTFSHYAMHWVRQAPGKGLEWVAVISYDGADKYYADSVRGRFTIARDNSKNTLFLQMSSLRPEDTAVYYCAKKGQPYCGGDCHFYYLDYWGQGTLVTVSS
VL: DIQMTQSPSSLSASVGDRVTITCQASQDISNHLNWYQQKPGKAPKLLIYDASNLETGVPSRFSGSGSGTDFTFTISSLQAEDIATYYCQQYDNLPPITFGQGTRLEIK
B18: it took 1.49 ng/mL to reach a half-maximal effect (EC50).

B19: C1010 (antibody, V domains shown)
VH: QVQLVESGGGVVQPGRSLRLSCAASGFTFSSYAMHWVRQAPGKGLEWVAVISYDGSNKYYADSVKGRFTISRDNSKNTLYLQMNSLRAEDTAVYYCAKKGQPYCGGDCYFYYFDYWGQGTLVTVSS
VL: DIQMTQSPSSLSASLGDRVTITCQASQDISNYLNWYQQKPGKAPKLLIYDASNLETGVPSRFSGSGSGTDFTFTISSLQPEDIATYYCQQYDNLPPITFGQGTRLEIK
As to B19, a half-maximal effect (EC50) was put at 2.45 ng/mL.

B20: C1001 (antibody, V domains shown)
VH: QVQLQESGPGLVKPSQTLSLTCTVSGGSISSGDYYWTWIRQPPGKGLEWIGYIFYSGITYYSPSLKSRLTMSIDTSKSQFSLNLSSVTAADTAVYYCARWKRLLQSLHFDYWGQGILVTVSS
VL: QSALTQPRSVSGSPGQSVTISCTGTSSDVGSYDYVSWYQQHPGKAPKVMIYGVDERPSGVPHRFSGSKSGNTASLTISGLQADDEADYFCCFYAGSYTLLFGGGTKVTVL
Turning to B20, it took 3.23 ng/mL to reach a half-maximal effect (EC50).

B21: C1014 (antibody, V domains shown)
VH: QVQLQESGPGLVRPSQTLSLTCTVSGGSIGSGAYWSWIRQHPAKGLEWIGYVYYSGSTFYNPSLETRVSISVDISKDQFSLELTSVTVADTAVYYCAREKIEVVSIEMRPHYYGIDVWGQGTTVTVSS
VL: EIVMTQSPATLSVSPGERATLSCRASQSISSNLAWYQQKPGQPPRLLIYGASTRATGIPARFSGSGSGTEFTLTISSLQSEDIAVYYCQHYNNWPPWTFGQGTKVDIK
For the molecule B21, it took 2.95 ng/mL to reach a half-maximal effect (EC50).
